Results as given in PMC9581967, “Helical ultrastructure of the metalloprotease meprin α in complex with a small molecule inhibitor” (Nature Communications, 2022).
One block for each molecule: values may come before it.

What was measured:
[1] = biological target: meprin α R372A (human (from the printed accession Q16819)) (UniProt Q16819); test: electron microscopy; variants imaged, concentration not stated (below the high concentration of 3 µM); N counts subunits
[2] = biological target: meprin α R372A (human (from the printed accession Q16819)) (UniProt Q16819); test: mass photometry; single-molecule mass measurement, 20 °C; low concentration (10 nM in the results, roughly 2-5 nM in the methods); association of homodimers through the helical interface; N counts subunits
[3] = biological target: meprin α R372T (human (from the printed accession Q16819)) (UniProt Q16819); test: MALDI-TOF mass spectrometry; linear positive mode, DHAP matrix; shows only covalently (disulphide) linked species; N counts subunits
[4] = biological target: meprin α R372T (human (from the printed accession Q16819)) (UniProt Q16819); test: electron microscopy; variants imaged, concentration not stated (below the high concentration of 3 µM); N counts subunits
[5] = biological target: meprin α wild type (V22-S600 construct; zymogen or activated form not told for the experiment) (human (from the printed accession Q16819)) (UniProt Q16819); test: MALDI-TOF mass spectrometry; linear positive mode, DHAP matrix; shows only covalently (disulphide) linked species; N counts subunits
[6] = biological target: the molecule itself; test: cryo-EM structure; meprin α alone (zymogen or active form), helical filament of covalent homodimers; 30 mM Tris, 100 mM NaCl, pH 7.4; pseudo single-particle analysis of filament segments

Molecule: meprin α R372A (from UniProt Q16819 22-600) (enzyme)
- stoichiometry N [1]: 2
- stoichiometry N [2]: 4

B1: pro-meprin α (V22-S600), wild type zymogen (enzyme, UniProt Q16819 22-600, looked up)
chain: VPIKYLPEENVHDADFGEQKDISEINLAAGLDLFQGDILLQKSRNGLRDPNTRWTFPIPYILADNLGLNAKGAILYAFEMFRLKSCVDFKPYEGESSYIIFQQFDGCWSEVGDQHVGQNISIGQGCAYKAIIEHEILHALGFYHEQSRTDRDDYVNIWWDQILSGYQHNFDTYDDSLITDLNTPYDYESLMHYQPFSFNKNASVPTITAKIPEFNSIIGQRLDFSAIDLERLNRMYNCTTTHTLLDHCTFEKANICGMIQGTRDDTDWAHQDSAQAGEVDHTLLGQCTGAGYFMQFSTSSGSAEEAALLESRILYPKRKQQCLQFFYKMTGSPSDRLVVWVRRDDSTGNVRKLVKVQTFQGDDDHNWKIAHVVLKEEQKFRYLFQGTKGDPQNSTGGIYLDDITLTETPCPTGVWTVRNFSQVLENTSKGDKLQSPRFYNSEGYGFGVTLYPNSRESSGYLRLAFHVCSGENDAILEWPVENRQVIITILDQEPDVRNRMSSSMVFTTSKSHTSPAINDTVIWDRPSRVGTYHTDCNCFRSIDLGWSGFISHQMLKRRSFLKNDDLIIFVDFEDITHLS
modifications: N-linked glycosylations
notes: meprin α, UniProt Q16819, residues V22-S600 (native signal peptide omitted, stop codon after S600; lacks the EGF-like and transmembrane regions); pro-peptide still on the chain; Disulphide-linked (C308) homodimer; the homodimers join non-covalently into a helical filament; Secreted through the BiP signal peptide of pMT/BiP/V5; also called latent state; meprin α ectodomain; source: Schneider-2 …
- binding result [6]: binds

The next lines start with the values.

- stoichiometry N [3]: 2
- stoichiometry N [4]: 2
Molecule: meprin α R372T (from UniProt Q16819 22-600) (enzyme)

- stoichiometry N [5]: 2
Molecule: meprin α wild type (V22-S600 construct; zymogen or activated form not told for the experiment) (from UniProt Q16819 22-600) (enzyme)
